Results published in paper PMC4776146, “Distinct phosphorylation sites on the ghrelin receptor, GHSR1a, establish a code that determines the functions of ß-arrestins” (Scientific Reports, 2016).
One block for each molecule: values may come before it.

Tests used:
Assay in all cases: FRET or BRET; BRET in living HEK 293 cells; eYFP-tagged receptor and Rluc-ß-arrestin co-transfected at a ratio of 4:1; Hanks' balanced salt solution; coelenterazine 2.5 uM for 10 min at 37 °C, then ghrelin for 5 min; concentration response curves for ghrelin; emissions at 535 and 475 nm
[1] = biological target: GHSR1a-TM (triple mutant of Ser362, Ser363 and Thr366 to Ala) fused at its C terminus to eYFP (UniProt Q92847)
Chain of GHSR1a-TM (triple mutant of Ser362, Ser363 and Thr366 to Ala) fused at its C terminus to eYFP (Q92847 other isoform, or with tags, fused parts or gaps, change not shown): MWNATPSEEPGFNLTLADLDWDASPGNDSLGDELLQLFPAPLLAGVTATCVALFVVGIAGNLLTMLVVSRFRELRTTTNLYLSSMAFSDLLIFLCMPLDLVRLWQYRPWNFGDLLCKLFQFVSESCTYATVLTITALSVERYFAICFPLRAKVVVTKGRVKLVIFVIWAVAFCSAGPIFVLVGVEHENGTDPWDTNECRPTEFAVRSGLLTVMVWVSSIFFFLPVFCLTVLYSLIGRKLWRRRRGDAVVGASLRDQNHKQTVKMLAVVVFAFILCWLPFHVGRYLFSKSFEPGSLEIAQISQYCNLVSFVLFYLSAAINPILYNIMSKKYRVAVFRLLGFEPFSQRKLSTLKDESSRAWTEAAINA

[2] = biological target: GHSR1a-Total (Ser349, Thr350, Ser362, Ser363 and Thr366 substituted by Ala) fused at its C terminus to eYFP (UniProt Q92847)
Chain of GHSR1a-Total (Ser349, Thr350, Ser362, Ser363 and Thr366 substituted by Ala) fused at its C terminus to eYFP (Q92847 other isoform, or with tags, fused parts or gaps): as the sequence (Q92847 other isoform, or with tags, fused parts or gaps, change not shown) above, with S349A, T350A counted along it

[3] = biological target: T1, GHSR1a-WT fused at its C terminus to enhanced yellow fluorescent protein (eYFP) (UniProt Q92847 1-366); settings: partners not purified
T1 construct: amplified by PCR with primers that removed the stop codon, subcloned upstream of full-length eYFP in pcDNA3.1; Phosphorylated in cells after ghrelin at Ser349, Thr350, Ser362, Ser363 and Thr366 (mass spectrometry on the EGFP-tagged receptor); also called YFP-GHSR1a-WT; YFP tagged-GHSR1a-WT; source: HEK 293, transiently co-transfected (Lipofectamine 2000), in living cells; not shown: eYFP, …
T1 sequence (Q92847 whole entry, the tested form may be a part): as the sequence (Q92847 other isoform, or with tags, fused parts or gaps, change not shown) above, with A362S, A363S, A366T counted along it

[4] = biological target: T2, GHSR1a-DM (double mutant Thr350Ala, Ser349Ala) fused at its C terminus to eYFP (UniProt Q92847 1-366, Thr350Ala | Ser349Ala); settings: partners not purified
T2 construct: also called YFP-GHSR1a-DM; source: HEK 293, transiently co-transfected (Lipofectamine 2000), in living cells; not shown: eYFP, C-terminal, kept
T2 sequence (Q92847 whole entry S349A/T350A, the tested form may be a part): as the sequence (Q92847 other isoform, or with tags, fused parts or gaps, change not shown) above, with S349A, T350A, A362S, A363S, A366T counted along it

efficacy of recruitment, percent of GHSR1a-WT response (BRET) (% of GHSR1a-WT response) [1]: 24.6
pEC50 of ghrelin for ß-arrestin 2 recruitment (BRET) [1]: 6.97
efficacy of recruitment, percent of GHSR1a-WT response (BRET) (% of GHSR1a-WT response) [2]: 18
pEC50 of ghrelin for ß-arrestin 2 recruitment (BRET) [2]: 6.04
Molecule: ß-arrestin 2 tagged with Rluc at its C-terminus (from UniProt P32121 1-409) (natural protein)

efficacy of recruitment, percent of GHSR1a-WT response (BRET) (% of GHSR1a-WT response) [1]: 36.8
pEC50 of ghrelin for ß-arrestin 1 recruitment (BRET) [1]: 7.13
efficacy of recruitment, percent of GHSR1a-WT response (BRET) (% of GHSR1a-WT response) [2]: 31.8
pEC50 of ghrelin for ß-arrestin 1 recruitment (BRET) [2]: 6.01
pEC50 of ghrelin for ß-arrestin 1 recruitment (BRET) [3]: 7.54
pEC50 of ghrelin for ß-arrestin 1 recruitment (BRET) [4]: 7.1
B1: Renilla luciferase-tagged ß-arrestin 1 (natural protein, UniProt P49407 1-418, looked up)
chain: MGDKGTRVFKKASPNGKLTVYLGKRDFVDHIDLVDPVDGVVLVDPEYLKERRVYVTLTCAFRYGREDLDVLGLTFRKDLFVANVQSFPPAPEDKKPLTRLQERLIKKLGEHAYPFTFEIPPNLPCSVTLQPGPEDTGKACGVDYEVKAFCAENLEEKIHKRNSVRLVIRKVQYAPERPGPQPTAETTRQFLMSDKPLHLEASLDKEIYYHGEPISVNVHVTNNTNKTVKKIKISVRQYADICLFNTAQYKCPVAMEEADDTVAPSSTFCKVYTLTPFLANNREKRGLALDGKLKHEDTNLASSTLLREGANREILGIIVSYKVKVKLVVSRGGLLGDLASSDVAVELPFTLMHPKPKEEPPHREVPENETPVDTNLIELDTNDDDIVFEDFARQRLKGMKDDKEEEEDGTGSPQLNNR
notes: plasmid provided by Prof; Mark Scott (Institut Cochin, Paris); also called Rluc-ß-arrestin 1; source: HEK 293, transiently co-transfected (Lipofectamine 2000), in living cells
